Molecular target: TesS thioesterase (SP1408) of Streptococcus pneumoniae, C-terminal FLAG tag (Streptococcus pneumoniae)
Assay: SEC

- stoichiometry N: 2
Substance: TesS thioesterase (SP1408) of Streptococcus pneumoniae, C-terminal FLAG tag (enzyme)

Source: publication PMC4415690
